Test results reported in the Immune Epitope Database (IEDB).

What was measured:
HLA-B*51:01 [1] = test: IEDB peptide-MHC binding, purified MHC/competitive/fluorescence; filed as Kd, often an IC50 or EC50 that approximates it; ≥ and ≤ were set here for values at or beyond the usual limits of such assays; conditions: source organism: Mycobacterium tuberculosis variant bovis
HLA-A*31:01 [2] = test: IEDB peptide-MHC binding, purified MHC/direct/fluorescence; filed as Kd, often an IC50 or EC50 that approximates it; ≥ and ≤ were set here for values at or beyond the usual limits of such assays
HLA-B*18:01 [3] = test: as above
HLA-B*08:01 = test: as above
HLA-B*15:01 = test: as above; conditions: source organism: Mycobacterium tuberculosis variant bovis
HLA-B*57:01 = test: as above
HLA-A*11:01 [4] = test: as above
HLA-B*44:02 = test: as above
HLA-A*01:01 [5] = test: as above
HLA-B*27:05 = test: as above
HLA-B*58:01 = test: as above
HLA-B*48:01 = test: as above
HLA-A*69:01 = test: as above
HLA-B*46:01 = test: as above
HLA-A*03:01 [6] = test: as above
HLA-B*40:01 [7] = test: as above
HLA-A*29:02 = test: as above
HLA-A*02:01 [8] = test: as above
HLA-B*35:01 = test: IEDB peptide-MHC binding, purified MHC/competitive/radioactivity; filed as Kd, often an IC50 or EC50 that approximates it; ≥ and ≤ were set here for values at or beyond the usual limits of such assays; conditions: source organism: Hepatitis C virus (isolate 1)
HLA-A*02:02 = test: as above; conditions: source organism: Hepatitis C virus (isolate 1)
HLA-B*07:02 [9] = test: as above; conditions: source organism: Hepatitis C virus (isolate 1)
HLA-A*31:01 [10] = test: as above; conditions: source organism: Hepatitis C virus (isolate 1)
HLA-B*18:01 [11] = test: as above; conditions: source organism: Hepatitis C virus (isolate 1)
HLA-B*44:03 = test: as above; conditions: source organism: Hepatitis C virus (isolate 1)
HLA-B*53:01 = test: as above; conditions: source organism: Hepatitis C virus (isolate 1)
HLA-A*02:03 = test: as above; conditions: source organism: Hepatitis C virus (isolate 1)
HLA-B*54:01 = test: as above; conditions: source organism: Hepatitis C virus (isolate 1)
HLA-A*11:01 [12] = test: as above; conditions: source organism: Hepatitis C virus (isolate 1)
HLA-A*68:01 = test: as above; conditions: source organism: Hepatitis C virus (isolate 1)
HLA-B*40:02 = test: as above; conditions: source organism: Hepatitis C virus (isolate 1)
HLA-A*01:01 [13] = test: as above; conditions: source organism: Hepatitis C virus (isolate 1)
HLA-A*68:02 = test: as above; conditions: source organism: Hepatitis C virus (isolate 1)
HLA-A*02:06 = test: as above; conditions: source organism: Hepatitis C virus (isolate 1)
HLA-A*33:01 = test: as above; conditions: source organism: Hepatitis C virus (isolate 1)
HLA-A*03:01 [14] = test: as above; conditions: source organism: Hepatitis C virus (isolate 1)
HLA-B*40:01 [15] = test: as above; conditions: source organism: Hepatitis C virus (isolate 1)
HLA-B*51:01 [16] = test: as above; conditions: source organism: Hepatitis C virus (isolate 1)
HLA-A*02:01 [17] = test: as above; conditions: source organism: Hepatitis C virus (isolate 1)
HLA-A*02:01 [18] = test: IEDB peptide-MHC binding, purified MHC/competitive/fluorescence; filed as Kd, often an IC50 or EC50 that approximates it; ≥ and ≤ were set here for values at or beyond the usual limits of such assays; conditions: source organism: Mycobacterium tuberculosis variant bovis BCG str. Pasteur 1173P2
HLA-B*07:02 [19] = test: IEDB peptide-MHC binding, purified MHC/direct/fluorescence; filed as Kd, often an IC50 or EC50 that approximates it; ≥ and ≤ were set here for values at or beyond the usual limits of such assays; conditions: source organism: Mycobacterium tuberculosis
[20] = source organism: Mycobacterium tuberculosis variant bovis
[21] = source organism: Mycobacterium tuberculosis
[22] = source organism: Mammarenavirus juninense
[23] = source organism: Mycobacterium tuberculosis C

## TPREAPYEL
HLA-B*51:01 [1]
  Kd: ≥ 20 µM
HLA-A*31:01 [2]; [20]
  Kd: ≥ 20 µM
HLA-B*18:01 [3]; [20]
  Kd: ≥ 20 µM
HLA-B*08:01; [20]
  Kd: 7 µM
HLA-B*15:01
  Kd: ≥ 20 µM
HLA-B*57:01; [20]
  Kd: ≥ 20 µM
HLA-A*11:01 [4]; [20]
  Kd: ≥ 20 µM
HLA-B*44:02; [20]
  Kd: ≥ 20 µM
HLA-A*01:01 [5]; [20]
  Kd: ≥ 20 µM
HLA-B*27:05; [20]
  Kd: ≥ 20 µM
HLA-B*58:01; [20]
  Kd: ≥ 20 µM
HLA-B*48:01; [20]
  Kd: ≥ 20 µM
HLA-A*69:01; [20]
  Kd: ≥ 20 µM
HLA-B*46:01; [20]
  Kd: ≥ 20 µM
HLA-A*03:01 [6]; [20]
  Kd: ≥ 20 µM
HLA-B*40:01 [7]; [20]
  Kd: ≥ 20 µM
HLA-A*29:02; [20]
  Kd: ≥ 20 µM
HLA-A*02:01 [8]; [20]
  Kd: ≥ 20 µM

## HSKKKCDEL
HLA-B*35:01
  Kd: ≥ 77.4 µM
HLA-A*02:02
  Kd: ≥ 70 µM
HLA-B*07:02 [9]
  Kd: ≥ 77.5 µM
HLA-A*31:01 [10]
  Kd: ≥ 65 µM
HLA-B*18:01 [11]
  Kd: ≥ 77.5 µM
HLA-B*44:03
  Kd: ≥ 78.2 µM
HLA-B*53:01
  Kd: ≥ 78.2 µM
HLA-A*02:03
  Kd: ≥ 78.1 µM
HLA-B*54:01
  Kd: ≥ 78.1 µM
HLA-A*11:01 [12]
  Kd: ≥ 37.3 µM
HLA-A*68:01
  Kd: ≥ 77.7 µM
HLA-B*40:02
  Kd: ≥ 77.3 µM
HLA-A*01:01 [13]
  Kd: 3.52 µM
HLA-A*68:02
  Kd: ≥ 69.8 µM
HLA-A*02:06
  Kd: ≥ 77.1 µM
HLA-A*33:01
  Kd: ≥ 77.7 µM
HLA-A*03:01 [14]
  Kd: ≥ 78 µM
HLA-B*40:01 [15]
  Kd: ≥ 76.2 µM
HLA-B*51:01 [16]
  Kd: ≥ 77.5 µM
HLA-A*02:01 [17]
  Kd: ≥ 69.4 µM

## IQAVFGFSL
HLA-A*02:01 [18]
  Kd: 1.35 µM
HLA-B*07:02 [19]
  Kd: ≥ 20 µM
HLA-A*31:01 [2]; [21]
  Kd: ≥ 20 µM
HLA-B*57:01; [21]
  Kd: ≥ 20 µM
HLA-A*11:01 [4]; [21]
  Kd: ≥ 20 µM
HLA-B*44:02; [21]
  Kd: ≥ 20 µM
HLA-A*01:01 [5]; [21]
  Kd: ≥ 20 µM
HLA-B*27:05; [21]
  Kd: ≥ 20 µM
HLA-B*58:01; [21]
  Kd: ≥ 20 µM
HLA-A*69:01; [21]
  Kd: ≥ 20 µM
HLA-B*46:01; [21]
  Kd: ≥ 20 µM
HLA-A*03:01 [6]; [21]
  Kd: ≥ 20 µM
HLA-A*29:02; [21]
  Kd: ≥ 20 µM

## ATDPVEMAL
HLA-A*01:01 [5]; [22]
  Kd: 0.308 µM
HLA-A*29:02; [22]
  Kd: ≥ 20 µM

## IIRTENRPL
HLA-A*31:01 [2]; [23]
  Kd: ≥ 20 µM
HLA-B*18:01 [3]; [23]
  Kd: ≥ 20 µM
HLA-B*08:01; [23]
  Kd: 3.06 µM
HLA-B*57:01; [23]
  Kd: ≥ 20 µM
HLA-A*11:01 [4]; [23]
  Kd: ≥ 20 µM
HLA-B*44:02; [23]
  Kd: ≥ 20 µM
HLA-A*01:01 [5]; [23]
  Kd: ≥ 20 µM
HLA-B*27:05; [23]
  Kd: ≥ 20 µM
HLA-B*58:01; [23]
  Kd: ≥ 20 µM
HLA-B*48:01; [23]
  Kd: ≥ 20 µM
HLA-A*69:01; [23]
  Kd: ≥ 20 µM
HLA-B*46:01; [23]
  Kd: ≥ 20 µM
HLA-A*03:01 [6]; [23]
  Kd: ≥ 20 µM
HLA-B*40:01 [7]; [23]
  Kd: ≥ 20 µM
HLA-A*29:02; [23]
  Kd: ≥ 20 µM
HLA-A*02:01 [8]; [23]
  Kd: ≥ 20 µM
